Numbering of substitutions follows the chain as printed. Names and notes keep the numbering of the source.
B1: Bacillus subtilis-derived VHH-COVE1 (VHH)
VHH: AEVQLVESGGGLVQPGGSLRLSCAASGFAFSSYPMYWVRQAPGKGLEWISFIDGEGTSTSYADSVKGRFTISRDNAKNTVYLQMNSLKPEDTAVYYCNALLRRYNYGFTFDNYWGQGTQVTVSSGGGSHHHHHH
B2: Bacillus subtilis-derived VHH-COVE4 (VHH)
VHH: AEVQLVESGGDVVQPGGSLRLSCAASGFTFTTYAMTWVRQAPGEGLEAVSTISGADGSTYYADSVKGRFTISRDNANNTVYLQMNSLKPEDTAVYYCAATPWYSASHTYWGQGTQVTVSSGGGSHHHHHH
B3: Bacillus subtilis-derived VHH-COVE8 (VHH)
VHH: EVQLVESGGGLVQPGGSLTLSCAASGQTFSSYNMAWFRQSPGKEREFVATISWGGGSTGYADSVKGRFTISRDHAKNTVYLQMKDLKPEDTGAYYCYLVGLFGIQASDYWGQGTQVTVSS
B4: Bacillus subtilis-derived VHH-COVE7 (VHH)
VHH: EVQLVESGGGLVQAGDSLRLSCTASGRTFSSCAMGWFRQAPGKEREFVAAISRGGGSTSYADSVKGRFTISKDRARNTAYLEMNSLKPEDTAIYYCYAVFPSGGDYWGQGTQVTVSS
B5: Bacillus subtilis-derived VHH-COVE2 (VHH)
VHH: AEVQLVESGGGLVQAGDSLRLSCAATRRTSSTYAMGWFRQAPGKGLEWVAAISWDGGRTYYAESVKGRFTISRDNAKNTVYLQMNSLKPEDTAVYYCYSFGGSDFLMDYWGQGTQVTVSSGGGSHHHHHH
B6: Bacillus subtilis-derived VHH-COVE3 (VHH)
VHH: AEVQLVESGGGFVQAGGSLRLSCRVSAPTFMTYTMAWFRQAPGNEREFVAALSKNFVTTSYADSVKGRFTISRDNAKNTVYLQMNSLKPEDTAVYYCNVAWSDYEYLEVWGQGTLVTVSSGGGSHHHHHH
B7: Bacillus subtilis-derived VHH-COVE9 (VHH)
VHH: EVQLVESGGGLVQPGGSLRLSCAASGTIFSTNAMSWYRQAPGKQRELVAAITSGGNTNYADSVKGRFTISRDNAKNTVYLQMNSLKPEDTAVYYCNAPGVVTGSYDVRNYWGQGTQVTVSS
B8: Bacillus subtilis-derived VHH-COVE5 (VHH)
VHH: EVQLVESGGGLVQAGGSLRLSCTASDQIFDNYNMAWFRQSPGKEREFVAALSWGDSNTGYADSVKGRFTISRDNAKNTVYLQMNSLKPEDTAVYYCYAVTWLRGDYWGQGTQVTVSS
B9: VHH-COVE9-R108K (VHH)
VHH: AEVQLVESGGGLVQPGGSLRLSCAASGTIFSTNAMSWYRQAPGKQRELVAAITSGGNTNYADSVKGRFTISRDNAKNTVYLQMNSLKPEDTAVYYCNAPGVVTGSYDVKNYWGQGTQVTVSSGSHHHHHH
B10: VHH-COVE9-Y110S (VHH)
VHH: B9 VHH with K109R, Y111S
B11: VHH-COVE9-N109D (VHH)
VHH: B9 VHH with K109R, N110D

Molecular target: T1, SARS-CoV-2 (2019-nCoV) spike S1-Fc recombinant protein (Sino Biological, Inc.) (SARS-CoV-2, UniProt P0DTC2 16-685)
Assay: not given

Binder	Kd [nM]	koff [s⁻¹]	kon [M⁻¹ s⁻¹]
B1	3.63	0.00028	77000
B2	0.997	0.000114	115000

Molecular target: Trimeric SARS-CoV-2 spike antigen full-length (Bio-Serv) (SARS-CoV-2, UniProt P0DTC2 14-1273)
Assay: ELISA, VHH on nickel plate, spike in solution (0-500 ng/mL)

Binder	absorbance (450 nm)
B3	0.97
B4	0.97
B5	0.97
B6	0.97
B7	0.97
B8	0.97

Molecular target: T1, SARS-CoV-2 (2019-nCoV) spike S1-Fc …
Assay: not given
Remark: another data set of the same source

Binder	Kd [nM]	koff [s⁻¹]	kon [M⁻¹ s⁻¹]
B9	3.28	0.000437	133000
B10	4.74	0.000683	144000
B11	8.38	0.00106	126000
